# Results taken from patent US8097254.
# Columns and labels:
# hen egg lysozyme (hen) = hen egg lysozyme (hen) (UniProt P00698); experiment: 125I-labelled (Iodogen) scFv loaded on antigen column, counting of flow-through and eluate
# [1] = target: T1, recombinant ED-B domain of fibronectin (UniProt P02751 1266-1356, biotinylated (biotin disulfide N-hydroxysuccinimide ester) in ELISA and ECL competition; Cy5 at the N-terminal extremity in the band-shift analysis); experiment: SPR (BIAcore)
# T1 construct: domain: ED-B; Recombinant fragment made as in Carnemolla et al. 1996; also called biotinylated ED-B; ED-B-biotin
# [2] = target: T1, recombinant ED-B domain of fibronectin; experiment: competition of scFv-(ED-B-biotin) complex with excess unbiotinylated ED-B, electrochemiluminescent detection (Origen)
# [3] = target: T1, recombinant ED-B domain of fibronectin; experiment: Kd = koff/kon, koff from ECL competition, kon from BIAcore
# [4] = target: T1, recombinant ED-B domain of fibronectin; experiment: SPR (BIAcore), purified scFv
# T1 sequence (P02751 1266-1356 limits assumed): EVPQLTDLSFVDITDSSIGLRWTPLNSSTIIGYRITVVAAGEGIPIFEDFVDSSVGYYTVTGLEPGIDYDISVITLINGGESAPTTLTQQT
# Chain of hen egg lysozyme (hen) (P00698 19-147): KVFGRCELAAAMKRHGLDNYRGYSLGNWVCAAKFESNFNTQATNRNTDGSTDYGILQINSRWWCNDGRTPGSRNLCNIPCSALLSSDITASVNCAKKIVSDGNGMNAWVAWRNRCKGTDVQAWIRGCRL
Molecule,immunoreactivity (hen egg lysozyme (hen)) [%],koff [1] [s⁻¹],koff [2] [s⁻¹],Kd [3] [nM],kon [4] [M⁻¹ s⁻¹]
scFv(D1.3),> 80,,,,
"scFv L19 (high-affinity anti-ED-B human scFv antibody fragment) (scFv, in some assays labelled: iodine-125 (Iodogen, or via N-succinimidyl-3-(125I)-benzoate), astatine-211 via m-MeATE, Cy5-NHS, tin (IV) chlorin e6) EVQLLESGGGLVQPGGSLRLSCAASGFTFSSFSMSWVRQAPGKGLEWVSSISGSSGTTYYADSVKGRFTISRDNSKNTLYLQMNSLRAEDTAVYYCAKPFPYFDYWGQGTLVTVSSGDGSSGGSGGASTGEIVLTQSPGTLSLSPGERATLSCRASQSVSSSYLAWYQQKPGQAPRLLIYYASSRATGIPDRFSGSGSGTDFTLTISRLEPEDFAVYYCQQTGRIPPTFGQGTKVEIKDDDSDDDYKDDDDKHHHHHH",,9.6e-05,6e-06,0.054,110000
